Source: the supplement of paper PMC12042874
± gives the uncertainty stated by the source.

Experiment: amyloid nucleation score (Sup35N fusion, yeast selection) (log enrichment); library NNK2; higher = more nucleation; inactive = no reads after selection
Outline: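 The nucleation score, computed with DiMSum, is the log enrichment of output over input reads, centred on the mode score of non-aggregating sequences. Sequences with under 100 input reads were dropped. Reads were generated by Illumina sequencing of plasmid inserts from psi-negative yeast with Sup35N fused to peptides of 20 random codons, induced with 100 μM copper sulfate for 24 hours and grown 7 days at 30°C on medium lacking adenine and uracil.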

In order of rising amyloid nucleation score:
1. KGAFANL  -1.63 ± 0.55
2. KFTSCAVNNDIMLLLVRVGF  -1.61 ± 0.75
3. IYYGGYVNRLNREAFRGCKL  -1.49 ± 0.49
4. KDYSGGIRHPVVPSGMISYL  -1.44 ± 1.1
5. KGCVDHVFIYGIN  -1.44 ± 0.41
6. IPTFKDLGFISESIMYNG  -1.38 ± 0.42
7. IYFYKSGESFRAYPFAPGQW  -1.37 ± 0.75
8. KFNILPKLWMDICMIYLAVY  -1.33 ± 0.49
9. IYTNSISACDDVVGKNRVFA  -1.3 ± 1.1
10. IPMPSCVQYYSVDYRWASLL  -1.27 ± 0.44
11. KDLPTSYIYMFDY  -1.2 ± 0.78
12. ISRKVAGSRDCINVRSTIGL  -1.14 ± 0.44
13. IMYVMGVVFNTMWVSA  -1.11 ± 0.62
14. IPIIGITNEVPMSVRFPSIF  -1.07 ± 0.55
15. INTSNQFFGYLYLWVSRYRY  -1.03 ± 0.54
16. IRFTKYNDGCILIMPRDVQV  -0.995 ± 0.55
17. KFSLDF  -0.837 ± 0.53
18. KEVCEKTMFMCSWVK  -0.809 ± 1.1
19. IPYLNFDLYWLPVI  -0.792 ± 0.48
20. KFSGRYWTGIEGVRISVCLH  -0.778 ± 0.56
21. ISTIWFRLQTGARKTRLLFD  -0.735 ± 0.79
22. KDSITAWCFVVLSVMTRVEY  -0.733 ± 1.1
23. KGGNIHSRVTYR  -0.669 ± 0.37
24. IPAMETSTLAGYGPYSHNFG  -0.629 ± 0.26
25. IYKGTASIISCRWGWSVRHW  -0.573 ± 0.79
26. ITTSSSWCATILSPQFFKDV  -0.569 ± 0.44
27. KDGSPYKYLA  -0.554 ± 0.63
28. ITEYSYWSGIPSSMVSPIKH  -0.459 ± 0.28
29. KFMHRWPVYMVSTGLSLIVW  -0.458 ± 0.41
30. ITWNIVGGHFS  -0.412 ± 1.1
31. IRECLVRSATSFLLDHKRRC  -0.383 ± 1
32. KCKRLVSKNIRL  -0.342 ± 1
33. IWRFRGRRNRAWKF  -0.333 ± 0.62
34. ISQAWVS  -0.329 ± 0.25
35. INFTYMGVMIFLSLLRQTWG  -0.311 ± 0.56
36. KFKDHVGLYKPMGSRKFLDW  -0.28 ± 0.28
37. IYRSVTRKSERMCTVVGQVV  -0.279 ± 0.48
38. INVLFRVSPRISAVRNVCST  -0.271 ± 0.36
39. IVNSKFKHAGVHPFDSL  -0.125 ± 0.79
40. KFSHQVEILPSGTSIGSCER  -0.111 ± 0.63
41. IYWMIIFWGFE  -0.089 ± 1.1
42. ITLGLQLCGFNCMTGLVRWS  -0.079 ± 0.76
43. KGLLCTHESMGVYRDSWPCY  -0.067 ± 0.49
44. KGTYNDIMLRYACCMAGVKR  -0.053 ± 0.49
45. IMSSHKSAYRVFLHGLCRMV  -0.028 ± 0.74
46. IPCVMG  0.004 ± 0.65
47. ITISII  0.044 ± 1.1
48. IVLFVKVDLLIDLISPL  0.049 ± 0.56
49. IYFGMDASKIGLLYVVGYSG  0.067 ± 0.63
50. IYIMVTVF  0.086 ± 0.33
51. KFLLGSVGTLQSNPTLFHLR  0.095 ± 0.33
52. ITLASDFACLFGVIDYSWIV  0.143 ± 0.49
53. KCLFES  0.144 ± 0.77
54. IVLLINRYMILMGEPNHA  0.17 ± 0.35
55. ISTTFV  0.192 ± 0.79
56. IPFLLTHDEHAAGCPAMKSY  0.223 ± 0.33
57. ISYTVDQRRFTSLVRCLYDH  0.322 ± 0.57
58. IWMRVVC  0.337 ± 0.8
59. IQLIRHCSSLNRTYQVSVSR  0.364 ± 0.3
60. IRSSWIANVLSANSRGRNNQ  0.382 ± 0.33
61. ISSHVSCKSAFEAS  0.395 ± 0.64
62. KCSTVYASGFWLPWTVVPGR  0.418 ± 0.26
63. IVILTC  0.464 ± 0.26
64. IRCRVRK  0.484 ± 0.4
65. IYAQAFFVYHTLFWGGGDQW  0.495 ± 0.16
66. IVLCWLEGG  0.516 ± 0.31
67. IVLLAVI  0.539 ± 0.81
68. KGWWGVIRDYREWFTGSRWG  0.594 ± 0.47
69. INFMAVDDKPRVVVEPCPSA  0.623 ± 0.62
70. IRWAQTFILLFVCSSARPTQ  0.712 ± 0.36
71. KCCILMLKA  0.745 ± 0.49
72. IPMSRGVQF  0.82 ± 0.14
73. KAAVMRHMSCCCYYHP  0.845 ± 0.66
74. ISKLSARSLSRVVNLYKGVA  0.85 ± 0.17
75. KFASVYWLGLFPLLMPTVVS  0.89 ± 0.43
76. IRYTFSKLRSDCFMRCARSW  0.898 ± 0.23
77. ISWAVKMHDIPV  0.97 ± 0.58
78. KGYGIHFCFRCMDSRCGVS  0.97 ± 0.28
79. IYGLCERTFEA  0.977 ± 0.14
80. KDLEFSISLMKVPNIWWHYR  1.04 ± 0.17
81. IWSCRGQLGSSFTPSGNCTG  1.05 ± 0.37
82. IWQMLVMMKAWKMCPTLVRY  1.09 ± 0.41
83. IVLLPWSCEM  1.26 ± 0.19
84. IMTHLVSTR  1.5 ± 0.3
85. KFSKGSPGWWHQGSLCMVAM  1.51 ± 0.58
86. KALQNSDGVGTRNLQTRHGY  1.75 ± 0.29
87. IRPSLGRR  1.79 ± 0.26
88. IRCQSVRDIGLYFDLDWVEK  2.28 ± 0.085
89. IRNTLPAAIDVSATVTFVIL  3.17 ± 0.12
90. ISKLTTRLLIYERNFPNWGH  3.19 ± 0.17
91. KFCVRVYNYIVDRITSLMKT  3.22 ± 0.067
92. IYINYHREA  3.54 ± 0.052
93. IRVSLFYPSG  3.89 ± 0.051
94. IWILELFKY  4.07 ± 0.12
95. ISFNQHTLSYKNVIFNCAFE  4.16 ± 0.044
96. IYFYCGRCVSVFVHSFGMGL  4.21 ± 0.05
97. IMVVYETSVAGPRTSRGYCL  4.729 ± 0.041
98. INVYRPFYIVRHY  5.101 ± 0.044
99. IVTTKWGNSHVSSVRIKARL  5.42 ± 0.084
100. KGQVLWTLGCMSIFVSMTNM  5.58 ± 0.078
101. ITIQKIVEYISLNPEDT  5.878 ± 0.055
102. ISLAINLCALIDATRDWSPC  6.12 ± 0.05
103. IVNCCSYLYTRIHNVGPAGN  6.383 ± 0.063
104. IYYACL  6.401 ± 0.054
105. KFWYYIFCGLCMCYDFSKRR  6.42 ± 0.084
106. IWQNVDCCPSWRLCVANHFM  6.778 ± 0.054
107. IQWFIWN  6.806 ± 0.027
108. ISFYVCVIML  7.433 ± 0.065
109. IYRTYYGINACLINLCMFDN  7.55 ± 0.078
110. IMSSVELWENHYCGDVCMIV  7.908 ± 0.049
111. IQCTCTPDYPVLSLSVMVNF  8.361 ± 0.078
112. KFILCCLFPTYGREFCTSGL  8.921 ± 0.068
113. KARWLIFDDVFCCCKFGGWW  9.018 ± 0.053

In the case of IMVVEQYLYYYSKVCTFFSV, the amyloid nucleation score is reported as “inactive”.
For INLYPR, the amyloid nucleation score was “inactive”.
In the case of IRCSVVDLCESSADSTSVRP, the amyloid nucleation score is reported as “inactive”.
With IRKIMVF the amyloid nucleation score was “inactive”.
In the case of ISSICFRNRDNFFLRAFGIG, the amyloid nucleation score is reported as “inactive”.
For IVDRAFDRAFRCGTGFGTDI, the amyloid nucleation score was “inactive”.
With IYRWPFVHPYMPLTRVAPDS the amyloid nucleation score was “inactive”.
For IYSISVLHCKGDLVYS, the amyloid nucleation score was “inactive”.
In the case of KAIGCAIKTFRYIYWIIWLL, the amyloid nucleation score is reported as “inactive”.
With KAYPFYTLHVGGRDRVIPDW the amyloid nucleation score was “inactive”.
In the case of KDNYNLNTGSSTISGHRWFA, the amyloid nucleation score is reported as “inactive”.
In the case of KECVHHDHFYG, the amyloid nucleation score is reported as “inactive”.
In the case of KFWDSDVGVGGHHV, the amyloid nucleation score is reported as “inactive”.
With KGSDSYLFIERWCLKMNISL the amyloid nucleation score was “inactive”.
